Data on 19 sequences can be found in a protein production outcome set (Wang et al. 2014).
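Further: failed if final PepcDB status was selected cloned or expressed and not failed if soluble or beyond.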

A short description of the series: label from the status in PepcDB records.
Consider “MNALAVRWNDWPITRKSLAVVTLPLLLLAVALMAIYSVERQNIAAENDVRQTLEVLSDLYEAHALLAETAAGVRGYRLVRRDEFLTPYRDAEPRLQRVADRLSQRITDPSQAQRFARIKPLFAEKMQGWRRLLAPDLSREEEIRQLWDGKYKLDILRAELRELRNYETAQLQVRTAKAQGLRQRNLIITLSAAMLGGLGAVFAVAWFASALSGRLRTLAANADRLGEGLPLAPQPRAGDELGQVGQRLAQASELLAARAAEAQLARREAETANRAKTEFLSRSSHELRTPLNAILGYAQVLEMDLPEPGHRRHLRHILGAGRHLLGLITELLDIARIEADQLDLSPEPISVRAAVHEALGLIAPDADKHGIALQPASIDGPWTVRADAQRLRQVLLNLLSNAVKFNRTGGQVQVSAQADGEQVRITVADQGAGLTPAQIERLFTPFERLGAERSAVEGTGLGLALSKRLIEAMGGQIGVDSSSDGARFWISLPQGEHQHSEPTRPLVPPSNAGSGVCRLLSIEDNPSNQALIRTLTERRPQWQLLEAASLAQARELLQHGAPDLILLDLHLSDGNGEELLRELQAQPAMAAIPVVVISADATSATLARVGNQGVRAYLTKPLDVAEFFTVIDGLLA”, for which the protein production result is on record as “not failed”.

Consider “MNALKGRDILALGFMTFALFVGAGNIIFPPIVGLQSGPHVWLAALGFLITAVGLPVITVIALAKVGGSVDALSHPIGRYAGGLLAAVCYLAVGPLFAIPRTATVSFEVGVVPLLGESGTALFVYSLAYFLLALAISLYPGRLLDTVGRFLAPLKILALAILGVAAFLWPAGPIGTAQPEYTQAAFSQGFVNGYLTMDTLAALVFGIVIVNAIRSRGVQSPRLITRYAIVAGLIAGVGLVLVYVSLFRLGAGSHAIAADASNGAAVLHAYVQHTFGSLGSSFLAGLIALACLVTAVGLTCACAEYFCQRLPLSYRSLVIILAGFSFIVSNLGLTKLIQVSIPVLTAIYPPCIVLVALSFCIGLWHSATRILAPVMLVSLAFGVLDALKAAGLGQDFPQWLLHLPLAEQGLAWLIPSVATLAACSLVDRLLGKPAQVAA”, for which the protein production entry was “failed”.

In the case of “MNANYVSKKPYIVTIACTKGGSAKSTNAANIGAFCADHGLRTLLIDTDTQPTLSSYYSLAKTAPGGIYEFLLQRDVEPSHIVSQTSIKNLDLIQSNDPSNNVSHMLRNAPDGSIRFSHLIKSINNYDVIVIDTRGTRDITVDMSVLAADILFCPILPQILSAKEFIRGTIGMYQDLQTFESFGFKLPPLKAIANGVDNTNDVKFVMQKLHTLFANTFDESKTLLDFSIPYHVAYREAVTYALPVYRHSAVEYPVMQQLCCLLLPQFKENFEKPMQRGLEHHHHHH”, the protein production result is listed as “not failed”.

“MNAPEIAAFKAERREPDKTDVDKLTGELDIRSEIWLIFDDLSTILEDQHFADKGVELLFSSLRYNTHNAKIIVTSRIVPIFENGESLIDVVEDEEKQNLKGLRKDYAVDYLVSNGLDKVEHEKLEELATGVDGHPLALKLLVELVKEFGVKDTLEDLSMYQESKDDTIKKARRLFDKLAGEEKELLESISVYREPVDMKGLREMFTLNTPKNAVKKLTDKSLLENDHNGSYWLHPLVQEFSYKDLKNKKEAHILAVKYCLSLPLPENPTKKGDVQPLIEAHYHTCAAKEYDAAAEIIFHFKLYEMLERWGNYNTLIELYEGVLPKSHFEDEPLLKNKEFHISILGNLGNVYTVLNEGKKAIQYHEKVVELNKGATNKFNEIISISNIGLFYFQQGMMKKAIECFEQTLKISNHDNQKGISGANLGNIGLVYLQIGEPKKAIQYFEKSLPLLKEANDKRREGANLGHMGMAYLQLNEAKEAVQCIQQSMYIAEEINDKRSIGNCFGNMGIIHSFFGEMKEALESYEQALSIAKEIDDRCNLGNWLGNKGRVYFDSGEIEKAIEFYKHALRIAKEINDVVREGLWIENLGQAFSYQGEFKKAIEYYEQALKISREIGNISAEGNLLENMGLAYYSLGEPRKAIEFLKESLAIRKAIEDPKIIGFCEQKLKELKGYDE”: the protein production entry is reported as “failed”.

Take “MNAQLQYQIEQFFYRKSELCDAQDWDAYLQLFAVDSEFHLPQWDSEHVYTRDPKREMSLIYYANRSGLEDRVFRLRTGKAASTIPMPRTLHMVSNLRIAEGDNGLLRVRLNWHTLFYRLATSEEFYGHATYDLKPQGDSWLIQRKHVLLLNDTINSVLDFYHL”: the protein production entry was “failed”.

With “MNARVHQPVHTAQHAPSYYAATLNRRIECPPLAGEEQADVCVVGGGFSGVNTALELAQRGFSVVLLEAHQIGWGASGRNGGQLIRGVGHDVEQFLPVIGADGVKALKLMGLEAVEIVRRRVEQYAIDCDLRWGYCDLANKPGDYQGFREDMEELQALGYRHEMRLVPAAEMRSVIGSDRYVGGLVDMGSGHLHPLNLVLGEAAAAQSLGVRLFERSTVMRIDYGTEVQVHTATGKVRAKTLVLGCNAYMNDLNPLLGGKVLPAGSYVIATEPLDEKLARQLLPQNMAVCDQRVALDYYRLSADNRLLFGGACHYSGRDPSDIAAYMRPKMLEVFPQLANVRIDYQWGGMIGIGANRLPQIGRLPGQPNVYFAQAYSGHGVNATHLAGQLLAEAIGGQQSDGFDLFAKVPHITFPGGKLLRSPLLALGMAWY”, the protein production result is listed as “failed”.

As to “MNAVTEGRKVLLEIADLKVHFEIKDGKQWFWQPPKTLKAVDGVTLRLYEGETLGVVGESGCGKSTFARAIIGLVKATDGHVAWLGKELLGMKPDEWRAVRSDIQMIFQDPLASLNPRMTIGEIIAEPLRTYHPKMSRQEVRERVKAMMLKVGLLPNLINRYPHEFSGGQCQRIGIARALILEPKLIICDEPVSALDVSIQAQVVNLLQQLQREMGLSLIFIAHDLAVVKHISDRVLVMYLGHAVELGTYDEVYHNPLHPYTRALMSAVPIPDPDLEKNKTIQLLEGELPSPINPPSGCVFRTRCPIAGPECAKTRPVLEGSFRHAVSCLKVDPL”, the protein production entry is on record as “failed”.

As to “MNAYLSMNSDWRASMTQTVLVLGASGRFGRNAAEAFGRAGWTVRQFDRKRDDLDAAARGADVIVNAWNPPYPDWAATVPGLHARVIKTAQATGATVIIPGNVYVFGADTPAPWGPDSPHAATNPLGRIRIDMEAAYRASGVRTILLRAGDFLDTCASGNWFDQVMIKRLDKGRFTYPGNPDIPHAWAYLPDLARATVTLSERRETLPVFCDLTYPGYTMTGRQIATGLEQVTGRRVALKRMNWLPLHLARPVWSLAGSLLEMRYLWNTPHSLDGAAFAKVLPEFVQTPFEQALASAIPARLLAAQVHPDQAVAAGL”, the protein production entry was “failed”.

For “MNAYYYLAIAICAEVIATVSMKAVKGLSTPLPLALIIVGYGVAFWMLTLVVRTVPVGVAYAVWAGMGIVMVSIAALFLYGQKLDIPAMLGMALIVLGVVVIQLFSKTAGH”, the protein production result is listed as “failed”.

On to “MNDFKNQWLRKRTFAIPASRLTGRLTTLKSDVPAADSLFWKLWNGSLDTAVQVLQTDYFKGIAAGTLDPNAYGSLMVQDGYYCFRGRDDYATAATCAQDETLREFFKAKAKSYDEYNETYHQTWHLREASGLIPGTDIKDYADYEAYVAGSLASPYMCVVMLPCEYLWPWIANFLDGYTPTNSLYRFWIEWNGGTPNGAYQMGNMLEQYRDKIDEDKAVEIFNTAMNYELKVFTSSTILTTIENGK”, for which the protein production result is “not failed”.

In the case of “MNDFLFYLDIFGVIVFALSGALMAGRYQLDPFGVVVLASVTAVGGGTIRDVILQTPVFWVEKPYYLYVILATAILTIVLIRQPKRIPKRFLLIADALGLALFAVLGTQKALYLGAPIPVAVVLGTITGIAGGMIRDVLCNVIPMILREEIYALAAMLGGSLFIILHGLNWNDTNAMIVSISAALALRLAAIYWHVSLPAFHIVEKPKKEKGTTKIIEKK”, the protein production entry was “failed”.

For “MNDFTFRCERPSLRLFAAAVVAVLLGLAPASSESVRKSGYAIGTESCGSGDLAFPRLQIDMKAGFCAGLVASEEDRLKFPRSIVQVPGRDLFVVADMGGWGHTDGRLLLLDPHAPPGQRFKELLTGLEYPFGLVIGPDRKLYASTAEAIFRFDPLADNPRGTVETIIRHMPGRRITLPDGTRLDESAHPLKQFVFDRNGRLFVNVGSHSDDCITPAPITKPCAAAEGASAMAAIWLFTPPSGGVFPALRPNDPDPPHTVYARGLRNSMALALHPNFPDAGYAFLQGENGRDLPDIFKPNEEINAIEQGRHYGWPYCYDLSTPSPEFRSVLQSGTYKSLCTANALYKPPFSLLPPHGAPLAMLYYHGAKFPELEGKLLVGLHGYRPTGSRVLAYDVDDHGFPRPSPAPVRYHVSCAADPTHSFQTDAGEVAAAPFEELIAGWHRVNGARPQGAPVGMTVAEDGAIWLVEDKNQTVIRIDRAAGDAPQPLPCDTRSQAMIDQLAAFIARDAQNSVRLTTLRKGLVEKHCLGCHSDFGLKAGQSEAEKDATVLRFMLSQDGWIYPGDPDSGRLRTRLRGLGAEKLMPPGGESLPKTEPGYARLLDTADLLVARMVPGTRIRIKAGPPQRRFFGKTNKECGEIPAAKVVVVTQRSAVDKPGFSRFFRPADPYLNGECTDDDGYYIRQEFLVPVQ”, the protein production result is reported as “failed”.

As to “MNDLLSSYLPVLIFIVVSAVIAGGLLVIPYIVAYRSPDPEKLSAYECGFNSFNDARMKFDIRFYLVSILFIIFDLEVAFLFPWAVSFGSIGMFGFWSMIIFLALLTVGFIYEWKKGALEWD”, the protein production result is given as “failed”.

Consider “MNDPMGETGFSRESAPEIVFSETDMAAAEQLMHLSEEETVSCSSSTGGDCGGGGGDKIKHEYVSSRIGNELNDGVRGNSILGVEKKRKRTVMKEKKFRSLESIYKGTKEIRD”, for which the protein production result was “failed”.

In the case of “MNDRSLGILLMFLTVIFWGISFVATKIILVYIPPITLGFIRFAIAAMILIVLIRNFPSYSKKDFLNLVLAGFLGITSYFLFENVALEYTTATNAALIAATVPIFYLMVSDLVERRIPSKIQYFGSLIGLFGVSILILNGRLILELNPIGDLLMIGAVLSWVLYTFVIQKLEKHDNLTVTRDITLIGVLLSVPFMLLEFGSKGVLDLGVFLNPPLTFAVLYLAIFCSAIAYLFWNMSIRLAGASTTNNGIYFIPIVAMIADSIILKNIPNIYATIGAVLVLFGVYISEKGDKLKIKL”, the protein production result is “failed”.

For the sequence “MNEHNITNTSLALSMLLVVVAMLISHKEKLALEKDILWSVCRAVIQLIIVGYVLKYIFGVNHAALTLLMVLFICFNAAWNAQKRSKYIDKAFLSSFIAITVGAGLTLTVLVLTGSIEFAPMQVIPIAGMVAGNAMVAVGLCYNQLGLRFHSEQQQIQEKLSLGATPKMASAGLIRDSIRASLIPTIDSAKTVGLVSLPGMMSGLIFAGIDPVKAIKYQIMVTFMLLSTASLSTIIACYLTYRKFYNSRHQLVVMPLKKS”, the protein production result is “failed”.

As to “MNEKFNINIAWFLIILGGIIECFWVSGLKYSTEIWHYILTAIGVCISFTCFLKACERLEVSITYSVFVGIGTIGVVLNEMFIFNEAVSIIKLVLIAILLLSIIALKWVSKEA”, the protein production entry was “failed”.

On to “MNENTKVIKGRTGDWEMVLGLEVHAQVASKSKLFSGAAVGFGAGPNEQVSLVDAAMPGMLPVLNRFCVEQAVKTGLGLRAQINLKSRFDRKNYFYPDLPQGYQISQFDQPIVGEGVVSVERDDGTTFDVRIERLHLEQDAGKSLHDQDPNATYVDLNRAGTALMEIVSKPDMRTSEEAAAYVKKLRTILVYLGTCDGDMEKGNLRADVNVSVCRPGDYEKFRATGDFKHLGTRCEIKNVNSYRYIQQAIEYEARRQIEILEDGGKVDQETRLFDPTKGETRSMRSKEEAHDYRYFPDPDLLPLVLDPAWVKSIEETLPELPDAKKARLQSQYGLSAYDAGVLIIDADRADYFEAAAKGRDAKLVANWVTNELLAKLSAAGTEFTNSPLPHTDIAQLVELIENGTISSKIAKEVFEHMWAGEGRPAEIVEKRGLVQINDTGAIEKAIDDLIAGNPDKAEAVKDKPQALGWFVGQVMKATGGKANPGTVNELLRKKLGVE”, for which the protein production result is on record as “failed”.

With “MNEQKNTAENTVNKQKDLETAGKTREKEDPKQLLLTASETDNYEDKLRIYDKALGLDPLYFDAWLQKGFVLDRLGRSNEALDCYNKALEIVPDHLGIKCLKGFAYSNLKDYEKAIECYDEVLKVNSEDVFSLFQKGSVLENLGRYGEAMEAYDRALEIDPADILIREKKMRLLGLIYKKGTLVDSPDSDFN”, the protein production result is on record as “failed”.
